The target of test [1] is T1, sRAGE (V-C1-C2) lot LP08062 (human, UniProt Q15109 23-331, limits assumed).
T1 construct: domain: V-C1-C2; also called Human RAGE; LP08062 (Rage)
Briefly: SPR (Biacore), mAb captured on anti-mouse Fc, sRAGE 15 nM, Langmuir 1:1. The method, then:
The assay is based on a capture assay using immobilized anti-mouse Fc IgG on CM5 chip. For immobilization of anti-Fc antibody HBS-EP was used as running buffer. Standard amine coupling to a CM5 chip was carried out at a contact time of 11 min and a flow rate of 10 μl/min. 10 mM Sodium Acetate pH 5.0 was used as immobilization buffer. The protein concentration (anti-mouse Fc, Biacore BR-1008-38) was 100 μg/mL.
For binding analysis SN anti-RAGE mAb diluted in running buffer at 1/10 (flow rate 5 μl/min) and sRAGE (V-C1-C2) lot LP08062 diluted in running buffer at 15 nM (flow rate 50 μl/min) was used as […], respectively (running buffer: HBS-P+BSA 12 mg/mL+CM Dextran 12 mg/mL and Regeneration solution: 10 mM Glycine pH 1.7). Langmuir 1:1 analysis was used as fitting model.
In general terms: SPR reads the build-up and loss of mass on a sensor chip optically.

For test [2], the target named is rat sRAGE (rat, UniProt Q63495 23-341, limits assumed). In words: ELISA, O.D. 450 nm, one bar per species; plate format and antibody concentration not given. (ELISA stands for enzyme-linked immunosorbent assay.)
Test [3] has as its target mouse sRAGE (mouse, UniProt Q62151 23-340, limits assumed). Described as above.
In test [4] the target is T2, RAGE C2 domain (UniProt Q15109 235-327, limits assumed).
T2 construct: domain: C2 domain
Briefly: domain mapping, Table 1.

Numbering of substitutions follows the chain as printed.

Broadly, the Kd is a measure of binding affinity in units of concentration. As usually defined, the koff is a measure of how fast the partners let go of each other. Lower therefore signals slow dissociation. Broadly, the kon is a measure of how fast the partners come together. A lower kon goes with slower complex formation.

T1 sequence (Q15109 23-331 limits assumed): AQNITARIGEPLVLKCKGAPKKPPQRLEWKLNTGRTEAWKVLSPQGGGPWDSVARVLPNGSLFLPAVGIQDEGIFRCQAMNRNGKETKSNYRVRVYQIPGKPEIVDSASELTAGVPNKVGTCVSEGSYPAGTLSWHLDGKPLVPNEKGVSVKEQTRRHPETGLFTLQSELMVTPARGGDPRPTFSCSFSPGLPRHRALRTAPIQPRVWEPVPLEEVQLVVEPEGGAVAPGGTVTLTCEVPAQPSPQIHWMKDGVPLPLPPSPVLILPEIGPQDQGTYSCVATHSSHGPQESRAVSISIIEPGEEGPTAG
rat sRAGE, sequence (Q63495 23-341 limits assumed): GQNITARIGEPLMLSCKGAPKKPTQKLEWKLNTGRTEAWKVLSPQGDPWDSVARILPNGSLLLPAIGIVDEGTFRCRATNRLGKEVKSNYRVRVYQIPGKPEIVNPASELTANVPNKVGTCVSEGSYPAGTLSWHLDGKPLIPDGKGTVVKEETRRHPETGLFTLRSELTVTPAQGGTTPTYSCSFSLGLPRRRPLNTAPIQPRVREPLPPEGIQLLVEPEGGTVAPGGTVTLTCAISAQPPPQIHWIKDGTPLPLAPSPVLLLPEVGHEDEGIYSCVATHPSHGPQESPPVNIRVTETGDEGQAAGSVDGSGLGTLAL
mouse sRAGE, sequence (Q62151 23-340 limits assumed): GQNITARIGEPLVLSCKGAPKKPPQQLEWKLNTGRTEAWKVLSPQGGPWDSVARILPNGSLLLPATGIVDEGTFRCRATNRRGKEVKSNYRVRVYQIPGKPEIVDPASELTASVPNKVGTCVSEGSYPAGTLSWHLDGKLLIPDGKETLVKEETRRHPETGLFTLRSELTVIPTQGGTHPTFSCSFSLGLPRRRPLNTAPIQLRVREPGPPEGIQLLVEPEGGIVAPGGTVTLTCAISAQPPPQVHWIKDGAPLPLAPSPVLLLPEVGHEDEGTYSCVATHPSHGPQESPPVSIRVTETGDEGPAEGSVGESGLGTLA
T2 sequence (Q15109 235-327 limits assumed): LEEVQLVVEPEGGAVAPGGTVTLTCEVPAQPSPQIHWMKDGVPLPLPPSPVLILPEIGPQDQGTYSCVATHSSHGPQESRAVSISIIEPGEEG

B1: 347 RAGE-1 (antibody, V domains shown)
VH: QVQLQQSGAELAKPGASVKMSCRASGYTFTDYWMHWVKQRPGQGLEWIGFINPSTVYTEYIPKFKDKATLTADKSSSTAYMQLSSLTSEDSAVYYCARSDGGWYFDVWGAGTTVTVSS
VL: DIQMTQSSSYLSVSLGGRVTITCKASDRINYWLAWYQQKPGNAPRLLISGATTLETGVPSRFSGSGSGKDYTLSITSLQTEDVATYYCQQYWSTPYTFGGGTKLELK
notes: Anti-RAGE monoclonal antibody from a hybridoma, captured by anti-mouse Fc
With B1, in test [1], the Kd came out at 0.666 nM, the dissociation rate constant (koff) came out at 0.00227 s⁻¹ and the association rate constant (kon) worked out at 3.41e+06 M⁻¹ s⁻¹. Also, in test [2], the binding result was “no binding (tested: not given)”. For the same molecule, the binding result in test [3] is recorded as “no binding (tested: not given)”.

B2: 140 RAGE-1 (antibody, V domains shown)
VH: QVQLQQPGAELVKPGASVRLSCKASGYTFTSYWMHWVKQRPGQGLEWIGEINPSNGRTNYNEKFKSKATLTVDKSSSTAYMQLSSLTSEDSAVYYCARDGLGYRPIAMDYWGQGTSVTVSS
VL: QIVLTQSPAIMSASPGEKVTISCSASSSVSYMYWYQQKPGSSPKPWIYRTSNLASGVPARFSGSGSGTSYSLTISSMEAEDAATYYCQQYHSYPPMYTFGGGTKLEIK
notes: Anti-RAGE monoclonal antibody from a hybridoma, captured by anti-mouse Fc; also called Protein 140 RAGE-1
As to B2, in test [1], binding was put at a Kd of 0.303 nM, the koff is 0.00157 s⁻¹ and the kon was 5.19e+06 M⁻¹ s⁻¹.

B3: 173 RAGE-1 (antibody, V domains shown)
VH: EVKLEESGGGLVQPGGSMKLSCVASGFTFSNYWMNWVRQSPEKGLEWVAEIRLKSNNYATHYAESVKGRFTISRDDSKSSVYLQMNDLRAEDPGIYYCIRDYGNYAMDHWGQGTSVTVSS
VL: DIVMTQSQKFMSTSVGDRVSVTCKASQNVGTNVAWYQQKPGQSPKALIYSASYRYSGVPDRFTGSGSGTDFTLTISNVQSEDLAEYFCQQYNSYPLTFGAGTKLELK
notes: Anti-RAGE monoclonal antibody from a hybridoma, captured by anti-mouse Fc; also called LP08107
Take B3: the binding result in test [4] is “no binding”. In test [1], this molecule registered a Kd of 0.678 nM, a koff of 0.00227 s⁻¹ and a kon of 3.35e+06 M⁻¹ s⁻¹. Also, the binding result in test [2] is recorded as “no binding (tested: not given)”. The binding result in test [3] was “no binding (tested: not given)”.

B4: 250 RAGE-1 (antibody, V domains shown)
VH: B3 VH with D87N, P93T, Y97F, H109Y
VL: B3 VL with Y86F
notes: Anti-RAGE monoclonal antibody from a hybridoma, captured by anti-mouse Fc; also called Protein 250 RAGE-1
As to B4, in test [1], the Kd turned out to be 0.556 nM, the koff was determined as 0.00199 s⁻¹ and the kon was found to be 3.58e+06 M⁻¹ s⁻¹. Further, the binding result in test [2] was “no binding (tested: not given)”. In addition, the binding result in test [3] is “no binding (tested: not given)”.

B5: 259 RAGE-1 (antibody, V domains shown)
VH: QVQLQQSGAELVRPGTSVKVSCKASGYAFTNYLIDWVNQRPGQGLEWIGVINPGSGGTNYNEKFTGKATLTADKSSSTAYMQLSSLTSDDSAVYFCARRRVDTMDYWGQGTSVTVSS
VL: QAVVTQESALTTSPGETVTLTCRSSTGAVTTSNYANWVQEKPDHLFTGLIGGTNNRAPGVPARFSGSLIGDKAALTITGAQTEDEAIYFCALWYSNHWVFGGGTKLTVL
notes: Anti-RAGE monoclonal antibody from a hybridoma, captured by anti-mouse Fc; also called Protein 259 RAGE -1
On to B5, for which, in test [1], the affinity, expressed as Kd, was 0.516 nM; the koff was 0.00224 s⁻¹; the kon came out at 4.34e+06 M⁻¹ s⁻¹.

B6: 529 RAGE-1 (antibody, V domains shown)
VH: EIQLQQTGPELVKPGASVKISCKASGYSFTDYIMLWVKQSHGKSLEWIGNINPYYGSTFYNLKFKGKATLTVDKSSSTAYMQLNSLTSEDSAVYYCARSDYWYFDVWGAGTTVTVSS
VL: B5 VL with A57S, W98L
notes: as for B1
In the case of B6, in test [1], the Kd came to 0.552 nM, the koff is 0.00169 s⁻¹ and the kon came to 3.06e+06 M⁻¹ s⁻¹.

B7: 95 RAGE-1 (antibody, V domains shown)
VH: QVQLQQPGAELVKPGASVKLSCKASGYTFTSYWMHWVKQRPGQGLEWIGESNPSNGRTNYNEKFKNKATLTVDKSSSTAYMQLSSLTSEDSAVYYCARAPYYGFDYWGQGTTLTVSS
VL: B5 VL with I50T
notes: Anti-RAGE monoclonal antibody from a hybridoma, captured by anti-mouse Fc; also called Protein 95 RAGE-1
In test [1], B7 registered a Kd of 0.462 nM, a koff of 0.00123 s⁻¹ and a kon of 2.66e+06 M⁻¹ s⁻¹.

B8: 501-4 RAGE-1 (antibody, V domains shown)
VH: EVMLVDSGGGLVKPGGSLKLSCAASGFTFRSYAMSWVRQTPEKRLEWVATISSGGSYTYYPDSVRGRFTTSRDNGKNTLYLQMSSLRSEDTAMYYCARHGGNYSAWFTYWGQGTLVTVSA
VL: B5 VL with G59D
notes: as for B1
In the case of B8, in test [1], the Kd is 0.0858 nM, the off-rate constant (koff) was determined as 0.000103 s⁻¹ and the kon stood at 1.2e+06 M⁻¹ s⁻¹.

B9: 283 RAGE-1 (antibody, V domains shown)
VH: QVQLQQSGAELVRPGTSVKVSCKASGYAFTNYLIEWVKQRPGQGLEWIGVINPGSGGTNYSERFKGKATLTADKSSSTAYMQLSSLTSDDSAVYFCASYRYDGGMDYWGQGTSVTVSS
VL: B5 VL with G51R
notes: Anti-RAGE monoclonal antibody from a hybridoma, captured by anti-mouse Fc; also called Protein 283 RAGE-1
Take B9: in test [1], the Kd was 0.371 nM, the koff is 0.00196 s⁻¹ and the kon amounted to 5.29e+06 M⁻¹ s⁻¹.

B10: 316 RAGE-1 (antibody, V domains shown)
VH: QVQLQQSGPELVRPGASVKMSCKASGYTFTSYWMHWVKQRPGQGLEWIGMIDPSNSETRLNQKFKDKATLNVDKSSNTAYMQLSSLTSEDSAVYYCARNFYGSSLRVWGAGTTVTVSS
VL: DIVLTQSPASLAVSLGQRATISCRASKSVSISGYSYLHWNQQKPGQSPKLLIYLASNLESGVPARFSGSGSGTDFTLNIHPVEEEDAATYYCQHSRELPYTFGGGTKLEIK
notes: Anti-RAGE monoclonal antibody from a hybridoma, captured by anti-mouse Fc; also called Protein 316 RAGE-1
In test [1], B10 came in with a Kd of 0.319 nM, a koff of 0.00177 s⁻¹ and a kon of 5.54e+06 M⁻¹ s⁻¹. The binding result in test [2] was “no binding (tested: not given)”. The binding result in test [3] is reported as “no binding (tested: not given)”.

B11: 184 RAGE-1 (antibody, V domains shown)
VH: QVQLQQSGAELVRPGTSVKVSCKASGYAFTNYLIEWVKQRPGQGLEWIGMINPGSGGTNYNEKFKGKATLTADKSSSTAYMQLSSLTSDDSAVYFCARGRGGHYRYFDVWGAGTTVTVSS
VL: B10 VL with I31T, L37M, N40Y, S47P, N57H, T76S, Y100W
notes: Anti-RAGE monoclonal antibody from a hybridoma, captured by anti-mouse Fc; also called Protein 184 RAGE-1
In test [1], B11 came in with a dissociation constant (Kd) of 0.595 nM, a koff of 0.00163 s⁻¹ and a kon of 2.74e+06 M⁻¹ s⁻¹.

B12: 130 RAGE-1 (antibody, V domains shown)
VH: EVQLVESGGGLVKPGGSLKLSCAASGFTFSSYVMSWVRQSPEKRLEWVAEISSGGSYTYYPDTVTGRFTISRDNDKNTLYLEMSSLRSEDTAMYYCARPPYGKDAMDYWGQGTSVTVSS
VL: QIVLTQSPAIMSASPGEKVTMTCSASSSVSYMHWYQQKSGTSPKRWISDTSKLASGVPARFSGSGSGTSYSLTISSMEAEDAATYYCQQWSSNPPTFGGGTKLEIK
notes: Anti-RAGE monoclonal antibody from a hybridoma, captured by anti-mouse Fc; also called Protein 130 RAGE-1
Consider B12, for which, in test [1], the Kd stood at 0.236 nM, the koff was determined as 0.00136 s⁻¹ and the on-rate constant (kon) came out at 5.76e+06 M⁻¹ s⁻¹. In addition, the binding result in test [2] is “no binding (tested: not given)”. Besides, the binding result in test [3] is on record as “no binding (tested: not given)”.

B13: 499 RAGE-1 (antibody, V domains shown)
VH: EVQLQQSGTVLARPGASVKMSCKASGYTFTSYWMHWVKQRPGQGLEWIGAIYPGDSDTYYNQKFKGKAKLTAVTSTSTAYMELSSLTNEDSAVYYCTRNWDYWGQGTTLTVSS
VL: DIVMTQSHKFMSTSVGDRVSITCKASQDVSTAVAWYQQKPGQSPKLLIYSASYRYTGVPDRFTGSGSGTDFTFTISSVQAEDLAVYYCQQHYNTPRTFGGGTKLEIK
notes: Anti-RAGE monoclonal antibody from a hybridoma, captured by anti-mouse Fc; also called Protein 499 RAGE-1
In test [1], B13 showed a Kd of 0.793 nM, a koff of 0.00157 s⁻¹ and a kon of 1.98e+06 M⁻¹ s⁻¹.

B14: 183 RAGE-1 (antibody, V domains shown)
VH: EVQLQQSGTVLARPGASVKMSCKASGYSFTSYWMHWVKQRPGQGLEWIGAIFPGNSDTTYNQKFKGKAKLTAVTSASTAYMELSSLTNEDSAVYYCTGLRRGFPYWGQGTLVTVSV
VL: NIVMTQSPKSMSMSVGERVTLSCKASENVGTYVSWYQQKPEQSPKLLIYGASNRYTGVPDRFTGSGSATDFTLTISSVQAEDLADYHCGQSYSYPYTFGGGTKLEIK
notes: Anti-RAGE monoclonal antibody from a hybridoma, captured by anti-mouse Fc; also called Protein 183 RAGE-1
For the molecule B14, in test [1], the affinity, expressed as Kd, was 1.73 nM; the off-rate (koff) was 0.00273 s⁻¹; the kon was determined as 1.58e+06 M⁻¹ s⁻¹.

B15: 210 RAGE-1 (antibody, V domains shown)
VH: EIQLQQTGPELVKPGASVKISCKASGYSFTDYIMVWVKQSHGKSLEWIGTINPYYGSTSYNLKFKGKATLTVDKSSSTANMQLNSLTSEDSAVYYCARLRLYAMDYWGQGTSVTVSS
VL: QAVVTQESALTTSPGETVTLTCRSSTGAVTTSNYANWVQEKPDHLFTGLIGGTNNRAPGVPARFSGSLIGDKAALTITGAQTEDEAIYFCALWYSNHFWVFGGGTKLTVL
notes: Anti-RAGE monoclonal antibody from a hybridoma, captured by anti-mouse Fc; also called Protein 210 RAGE-1
As for B15, in test [1], the Kd amounted to 0.276 nM, the koff was 0.00107 s⁻¹ and the kon amounted to 3.88e+06 M⁻¹ s⁻¹.

The record behind these values is patent publication US20120282637A1 (Sanofi, published 2012).
